Read-outs that look alike come from different tables or passages of the source.

Assay [1] concerns HIV-1. To be noted: read-out: TZM-b1 cells IC50; single-cycle assay, TZM-bl cells; ref [8]; cited from earlier work.
Assay [2] relates to HIV-1. The settings on record: read-out: MT-2 cells IC50, multi-cycle infection assay, ref [8]; cited from earlier work.
The target of assay [3] is HIV capsid protein p24 CTD (Human immunodeficiency virus 1) (UniProt O93182). To be noted: cited from earlier work.
Assay [4] concerns the target capsid assembly inhibitor (CAI) peptide. Kind of assay: ITC.

Consider “ISFR8ELLDYYS5ESGS (sidechain bridge or staple) [NYAD-36]”, for which the IC50 in assay [1] is 2 ± 0.4 µM; in assay [2] it was 1.5 ± 0.17 µM.
Consider CAI, for which the Kd in assay [3] is 15 µM.
“C-terminal domain (CTD) of the HIV capsid protein p24, M184A/W185A (domain or fragment)”: in assay [4], the Kd was found to be 8.3 µM, the dH was -9.45 kcal/mol and the stoichiometry N was 0.98.

Source of the values: article PMC4005879 (Bioorganic & medicinal chemistry letters, 2014).
